{
  "source": "paper PMC3672174",
  "key": {"[1]": {"molecular_target": "human serum amyloid A 1.1 with the N-terminal methionine (MetSAA1.1) (human) (UniProt P0DJI8)", "assay": "SEC; \"cross-purified\" proteins (MetSAA1.1 also passed through Histrap Ni-NTA; hSAA1.1 also purified by cation and anion exchange), compared with \"regular\" proteins, refolded at 20 µM, 4°C; self-association"}, "[2]": {"molecular_target": "human serum amyloid A 1.1 with the N-terminal methionine (MetSAA1.1) (human) (UniProt P0DJI8)", "assay": "SEC; as a1, protein refolded at 8.5 µM; self-association"}, "[3]": {"molecular_target": "human serum amyloid A 1.1 with the N-terminal methionine (MetSAA1.1) (human) (UniProt P0DJI8)", "assay": "SEC; as a1, protein refolded at 75 µM; self-association"}, "[4]": {"molecular_target": "human serum amyloid A 1.1 with the N-terminal methionine (MetSAA1.1) (human) (UniProt P0DJI8)", "assay": "SEC; Superdex 200 10/300 GL, 4°C, protein refolded at 20 µM, ~30 µL loaded, column in TBS (20 mM Tris/200 mM NaCl, pH 8.3), 0.5 mL/min; sizes from MW standards, globular shape assumed; self-association"}, "[5]": {"molecular_target": "human serum amyloid A 1.1 (hSAA1.1), without the N-terminal methionine (human) (UniProt P0DJI8)", "assay": "SEC; as a1, protein refolded at 8.5 µM; self-association"}, "[6]": {"molecular_target": "human serum amyloid A 1.1 (hSAA1.1), without the N-terminal methionine (human) (UniProt P0DJI8)", "assay": "SEC; as a1, protein refolded at 75 µM; self-association"}, "[7]": {"molecular_target": "human serum amyloid A 1.1 (hSAA1.1), without the N-terminal methionine (human) (UniProt P0DJI8)", "assay": "SEC; Superdex 200 10/300 GL, 4°C, protein refolded at 20 µM, ~30 µL loaded, column in TBS (20 mM Tris/200 mM NaCl, pH 8.3), 0.5 mL/min; sizes from MW standards, globular shape assumed; self-association"}},
  "note": "Several values for one entry are separate records, joined by “and”; a condition that tells them apart may be missing. Equal entries are not always repeated.",
  "data": [
    {"substance": "human serum amyloid A 1.1 with the N-terminal methionine (MetSAA1.1) (from UniProt P0DJI8 19-122) (natural protein)", "values": [
      {"measurement": "stoichiometry N", "setting": "[1]", "value": 4},
      {"measurement": "stoichiometry N", "setting": "[2]", "value": "8 and 4"},
      {"measurement": "stoichiometry N", "setting": "[3]", "value": "4 and 8"},
      {"measurement": "stoichiometry N", "setting": "[4]", "value": "4 and 8"}
    ]},
    {"substance": "human serum amyloid A 1.1 (hSAA1.1), without the N-terminal methionine (from UniProt P0DJI8 19-122) (natural protein)", "values": [
      {"measurement": "stoichiometry N", "setting": "[5]", "value": "4 and 8"},
      {"measurement": "stoichiometry N", "setting": "[6]", "value": "8 and 6"},
      {"measurement": "stoichiometry N", "setting": "[7]", "value": "8 and 6"}
    ]}
  ]
}
